The results in this text go back to article PMC8831504.

For this assay, the target named is cpNanoLuc α-amylase biosensor (VHH-cpNanoLuc-VHH fusion). Description: luminescence titration of a single-component biosensor; 1 nM biosensor in 200 μl 20 mM Tris-HCl pH 7.2, 100 mM NaCl with 0.25 μl furimazine stock, titrated with its protein ligand; preincubated 15 min at room temperature; luminescence 445-470 nm; fit to a quadratic binding equation.
cpNanoLuc α-amylase biosensor (VHH-cpNanoLuc-VHH fusion), sequence (main, as listed by the source): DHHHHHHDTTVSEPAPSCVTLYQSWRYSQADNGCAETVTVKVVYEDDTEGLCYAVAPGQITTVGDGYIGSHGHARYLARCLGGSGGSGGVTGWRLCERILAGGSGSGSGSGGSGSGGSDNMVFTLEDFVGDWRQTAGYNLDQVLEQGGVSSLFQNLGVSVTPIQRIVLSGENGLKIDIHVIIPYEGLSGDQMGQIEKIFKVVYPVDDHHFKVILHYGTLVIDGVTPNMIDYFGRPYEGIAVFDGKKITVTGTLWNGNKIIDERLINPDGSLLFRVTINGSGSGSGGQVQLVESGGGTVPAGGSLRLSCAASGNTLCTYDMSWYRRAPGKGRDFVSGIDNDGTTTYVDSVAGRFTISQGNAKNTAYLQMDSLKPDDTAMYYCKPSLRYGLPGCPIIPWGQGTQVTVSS

B1: human α-amylase (enzyme)
chain: QYSSNTQQGRTSIVHLFEWRWVDIALECERYLAPKGFGGVQVSPPNENVAIHNPFRPWWERYQPVSYKLCTRSGNEDEFRNMVTRCNNVGVRIYVDAVINHMCGNAVSAGTSSTCGSYFNPGSRDFPAVPYSGWDFNDGKCKTGSGDIENYNDATQVRDCRLSGLLDLALGKDYVRSKIAEYMNHLIDIGVAGFRIDASKHMWPGDIKAILDKLHNLNSNWFPEGSKPFIYQEVIDLGGEPIKSSDYFGNGRVTEFKYGAKLGTVIRKWNGEKMSYLKNWGEGWGFMPSDRALVFVDNHDNQRGHGAGGASILTFWDARLYKMAVGFMLAHPYGFTRVMSSYRWPRYFENGKDVNDWVGPPNDNGVTKEVTINPDTTCGNDWVCEHRWRQIRNMVNFRNVVDGQPFTNWYDNGSNQVAFGRGNRGFIVFNNDDWTFSLTLQTGLPAGTYCDVISGDKINGNCTGIKIYVSDDGKAHFSISNSAEDPFIAIHAESKL
Usually Kd stands for the concentration at which binding is half-saturated. The molecule B1 returned a Kd of 0.5 nM.
